According to patent US20100330076A1 (RESEARCH DEVELOPMENT FOUNDATION, published 2010):

biological target: T1, extracellular domain of recombinant glycosylated FcγRIa/CD64 (R&D Systems) labeled with FITC (human, UniProt P12314 16-292, FITC-labeled; glycosylated); assay: flow cytometry of E. coli spheroplasts labeled with FcγRIa-FITC (summary in Example 3)
T1 construct: extracellular domain; it is not restated for the bought reagent; also called FcγRIa-FITC; FcγRI-FITC
T1 sequence (P12314 16-292): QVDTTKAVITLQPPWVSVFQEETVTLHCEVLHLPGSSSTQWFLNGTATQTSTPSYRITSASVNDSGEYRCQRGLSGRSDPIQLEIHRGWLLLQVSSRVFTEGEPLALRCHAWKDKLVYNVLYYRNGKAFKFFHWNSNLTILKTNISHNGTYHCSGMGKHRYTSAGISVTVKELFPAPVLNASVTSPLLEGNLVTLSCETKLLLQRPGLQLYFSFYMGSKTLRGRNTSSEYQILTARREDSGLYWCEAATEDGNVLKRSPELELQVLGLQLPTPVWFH

| binding result | Binder |
| --- | --- |
| binds | Fc602 (other, Aglycosylated Fc fragment (E. coli, pPelBFLAG), assayed on spheroplasts; not shown: C-terminal FLAG tag from pPelBFLAG) DKTHTCPPCPAPELLGGPSVFLFPPKPKDTLMISRTPEVTCVVVDVSHEDPEVKFNWYVDGVEVHNAKTKPREEQYDSTYRVVSVLTVLHQDWLDGKEYKCKVSNKALPAPIEKTISKANGQPREPQVYTLPPSRDELTKNQVSLTCLVKGFYPSDIAVEWVSNGQPENNYKTTPPVLDSDGSFFLYSKLTVDKSRWQQGNVFSCSVIHEALHNHYTQKSLSLSPGK |

biological target: T1, extracellular domain of recombinant …; assay: flow cytometry of E. coli spheroplasts expressing the Fc fragment, labeled with FcγRIa-FITC

| binding result | Binder |
| --- | --- |
| binds | Fc611 (other, Aglycosylated Fc fragment (E. coli, pPelBFLAG), assayed on spheroplasts; not shown: C-terminal FLAG tag from pPelBFLAG) DKTHTCPPCPAPELLGGPSVFLFPPKPKDTLMISRTPEVTCVVVDVSHEDPEVKFNWYVDGVEVHNAKTKPREEQYNSTYRVVSVLTVLHQDWLNGKEYKCKVSNKALPAPIEKTISKAKVQPREPQVYTLPPSRDELTKNQVSLTCLVKGFYPSDIAVEWVSNGQPENNYKTTPPVLDSDGSFFLYSKLTVDKSRWQQGNVFSCSVIHEALHNHYTQKSLSLSPGK |
| binds | Fc619 (other, Aglycosylated Fc fragment (E. coli, pPelBFLAG), assayed on spheroplasts; not shown: C-terminal FLAG tag from pPelBFLAG) DKTHTCPPCPAPELLGGPSVFLFPPKPKDTLMISRTPEVTCVVVDMSHEDPEVKFNWYVDGVEVHNAKTKPREEQYNSTYRVVSVLTVLHQDWLNGKEYKCKVSNKALPAPIEKTISKAKGQPREPQVYTLPPSRDELTKNQVSLTCLVKGFYPSDIAVEWVSNGQPENNYKTTPPVLDSDGSFFLYSKLTVDKSRWQQGNVFSCSVIHEALHNHYTQKSLSLSPGK |
| binds | Fc601 (other, Aglycosylated Fc fragment (E. coli, pPelBFLAG), assayed on spheroplasts; also called IgG1-Fc601; not shown: C-terminal FLAG tag from pPelBFLAG) DKTHTCPPCPAPELLGGPSVFLFPPKPKDTLMISRTPEVTCVVVDVSHEDPEVKFNWYVDGVEVHNAKTKPREEQYNSTYRVVSVLTVLHQDWLNGKEYKCKVSNKALPAPIEKTISRAKVQPREPQVYTLPPSRDELTKNQVSLTCLVKGFYPSDIAVEWVSNGQPENNYKTTPPVLDSDGSFFLYSKLTVDKSRWQQGNVFSCSVIHEALHNHYTQKSLSLSPGK |
| binds | Fc703 (other, Aglycosylated Fc fragment (E. coli, pPelBFLAG), assayed on spheroplasts; not shown: C-terminal FLAG tag from pPelBFLAG) DKTHTCPPCPAPELLGGPSVFLFPPKPKDTLMISRTPEVTCVVVDVSHEDPEVKFNWYVDGVEVHNAKTKPREEQYNSTYRVVSVLTVLHQDWLNGKEYKCKVSNKAWPEEYEKTISKAKGQPREPQVYTLPPSRDELTKNQVSLTCLVKGFYPSDIAVEWVSNGQPENNYKTTPPVLDSDGSFFLYSKLTVDKSRWQQGNVFSCSVIHEALHNHYTQKSLSLSPGK |
| binds | Fc610 (other, Aglycosylated Fc fragment (E. coli, pPelBFLAG), assayed on spheroplasts; not shown: C-terminal FLAG tag from pPelBFLAG) DKTHTCPPCPAPELLGGPSVLLFPPKPKDTLMISRTPEVTCVVVDVSHEDPEVKFNWYVDGVEVHNAKTKPREEQYNSTYRVVSVLTVLHQDWLNGKEYKCKVSNKALPAPIEKTISKAKVQPREPQVYTLPPSRDELTKNQVSLTCLVKGFYPSDIAVEWVSNGQPENNYKTTPPVLDSDGSFFLYSKLTVDKSRWQQGNVFSCSVIHEALHNHYTQKSLSLSPGK |
| binds | Fc612 (other, Aglycosylated Fc fragment (E. coli, pPelBFLAG), assayed on spheroplasts; not shown: C-terminal FLAG tag from pPelBFLAG) DKTHTCPPCPAPELLGGPSVFLFPPKPKDTLMISRTPEVTCVVVDVSHEDPEVKFDWYVDGVEVHNAKTKPREEQYNSTYRVVSVLTVLHQDWLNGKEYKCKVSNKALPAPIEKTISKAKVQPREPQVYTLPPSRDELTKNQVSLTCLVKGFYPSDIAVEWVSNGQPENNYKTTPPVLDSDGSFFLYSKLTVDKSRWQQGNVFSCSVIHEALHNHYTQKSLSLSPGK |
| binds | Fc704 (other, Aglycosylated Fc fragment (E. coli, pPelBFLAG), assayed on spheroplasts; not shown: C-terminal FLAG tag from pPelBFLAG) DKTHTCPPCPAPELLGGPSVFLFPPKPKDTLMISRTPEVTCVVVDVSHEDPEVKFNWYVDGVEVHNAKTKPREEQYNSTYRVVSVLTVLHQDWLNGKEYKCKVSNKAWPEVYEKTISKAKGQPREPQVYTLPPSRDELTKNQVSLTCLVKGFYPSDIAVEWVSNGQPENNYKTTPPVLDSDGSFFLYSKLTVDKSRWQQGNVFSCTVIHEALHNHYTQKSLSLSPGK |
| binds | Fc705 (other, Aglycosylated Fc fragment (E. coli, pPelBFLAG), assayed on spheroplasts; not shown: C-terminal FLAG tag from pPelBFLAG) DKTHTCPPCPAPELLGGPSVFLFPPKPKDTLMISRTPEVTCVVVDVSHEDPEVKFNWYVDGVEVHNAKTKPREEQYNSTYRVVSVLTVLHQDWLNGKEYKCKVSNKAWPEVYEKTISKAKGQPREPQVYTLPPSRDELTKNQVSLTCLVKGFYPSDIAVEWVSNGQPENNYKTTPPVLDSDGSFFLYSKLTVDKSRWQQGNVFSCSVIHEALHNHYTQKSLSLSPGK |
| binds | Fc609 (other, Aglycosylated Fc fragment (E. coli, pPelBFLAG), assayed on spheroplasts; not shown: C-terminal FLAG tag from pPelBFLAG) DKTHTCPPCPAPELLGGPSVFLFPPKPKDTLMISRTPEVTCVVVDVSHEDPEVKFNWYVDGVEVHNAKTKPREEQYNSTYRVVSVLTVLHQDWLNGKEYKCKVSNKALPAPIEKTISRAKVQPREPQVYTLPPSRDELTKNQVSLTCLVKGFYPSDIAVEWVSNGQPENNYKTTPPVLDSDGSFFLYSKLTVDKSRWQQGNVFLCSVIHEALHDHYTQKSLSLSPGK |
| binds | Fc617 (other, Aglycosylated Fc fragment (E. coli, pPelBFLAG), assayed on spheroplasts; not shown: C-terminal FLAG tag from pPelBFLAG) DKTHTCPPCPAPELLGGPSVFLFPPKPKDTLMISRTPEVTCVVVDVSHEDPEVKFNWYVDGVEVHNAKTKPREEQYNSTYRVVSVLTVLHQDWLNGKEYKCKVSNKALPAPIEKTISKAKVQPREPQMYTLPPSRDELTKNQVSLTCLVKGFYPSDIAVEWVSNGQPENNYKTTPPVLDSDGSFFLYSKLTVDKSRWQQGNVFSCSVIHEALHNHYTQKSLSLSPGK |
| binds | Fc708 (other, Aglycosylated Fc fragment (E. coli, pPelBFLAG), assayed on spheroplasts; not shown: C-terminal FLAG tag from pPelBFLAG) DKTHTCPPCPAPELLGGPSVFLFPPKPKDTLMISRTPEVTCVVVDVSHEDPEVKFNWYVDGVEVHNAKTKPREEQYNSTYRVVSVLTVLHQDWLNGKEYKCKVSNKAWPASYEKTISKAKGQPREPQVYTLPPSRDELTKNQVSLTCLVKGFYPSDIAVEWVSNGQPENNYKTTPPVLDSDGSFFLYSKLTVDKSRWQQGNVFSCSVIHEALHNHYTQKSLSLSPGK |
| binds | Fc616 (other, Aglycosylated Fc fragment (E. coli, pPelBFLAG), assayed on spheroplasts; not shown: C-terminal FLAG tag from pPelBFLAG) DKTHTCPPCPAPELLGGPSVFLFPPKPKDTLMISRTPEVTCVVVDVSHEDPEVKFNWYVDGVEVHNAKTKPREEQYNSTCRVVSVLTVLHQDWLNGKEYKCKVSNKALPAPIEKTISKAKVQPREPQVYTLPPSRDELTKNQVSLTCLVKGFYPSDIAVEWVSNGQPENNYKTTPPVLDSDGSFFLYSKLTVDKSRWQQGNVFSCSVIHEALHNHYTQKSLSLSPGK |
| binds | Fc618 (other, Aglycosylated Fc fragment (E. coli, pPelBFLAG), assayed on spheroplasts; not shown: C-terminal FLAG tag from pPelBFLAG) DKTHTCPPCPAPELLGGPSVFLFPPKPKDTLMISRTPEVTCVVVDVSHEDPEVKFNWYVDGVEVHNAKTKPREEQYNSTYRVVSVLTVLHQDWLNGKEYKCKVSNKALPAPIEKTISKAKGQPREPQVYTLPPSRDELTKNQVSLTCLVKGFYPSDIAVEWVSNGQPENNYKTTPPVLDSDGSFFLYSKLTVDKSRWQQGNVFSCSVIHEALHSHYTQKSLSLSPGK |
| binds | Fc707 (other, Aglycosylated Fc fragment (E. coli, pPelBFLAG), assayed on spheroplasts; not shown: C-terminal FLAG tag from pPelBFLAG) DKTHTCPPCPAPELLGGPSVFLFPPKPKDTLMISRTPEVTCVVVDVSHEDPEVKFNWYVDGVEVHNAKTKPREEQYNSTYRVVSVLTVLHQDWLNGKEYKCKVSNKAWPEPYEKTISKAKGQPREPQVYTLPPSRDELTKNQVSLTCLVKGFYPSDIAVEWVSNGQPENNYKTTPPVLDSDGSFFLYSKLTVDKSRWQQGNVFSCSVIHEALHNHYTQKSLSLSPGK |
| binds | Fc701 (other, Aglycosylated Fc fragment (E. coli, pPelBFLAG), assayed on spheroplasts; also called IgG1-Fc701; not shown: C-terminal FLAG tag from pPelBFLAG) DKTHTCPPCPAPELLGGPSVFLFPPKPKDTLMISRTPEVTCVVVDVSHEDPEVKFNWYVDGVEVHNAKTKPREERYNSTYRVVSVLTVLHQDWLNGKEYKCKVSNKAWPVAYEKTISKAKGQPREPQVYTLPPSRDELTKNQVSLTCLVKGFYPSDIAVEWVSNGQPENNYKTTPPVLDSDGSFFLYSKLTVDKSRWQQGNVFSCSVIHEALHNHYTQKSLSLSPGK |
| binds | Fc615 (other, Aglycosylated Fc fragment (E. coli, pPelBFLAG), assayed on spheroplasts; not shown: C-terminal FLAG tag from pPelBFLAG) DKTHTCPPCPAPELLGGPSVFLFPPKPKDTLMISRTPEVTCVVVDVSHEDPEVKFNWYVDGVEVHNAKTKPREEQYNSTYRVVSVLTVLHQDWLNGKEYKCKVSSKALPAPIEKTISKAKVQPREPQVYTLPPSRDELTKNQVSLTCLVKGFYPSDIAVEWVSNGQPENNYKTTPPVLDSDGSFFLYSKLTVDKSRWQQGNVFSCSVIHEALHNHYTQKSLSLSPGK |
| binds | Fc614 (other, Aglycosylated Fc fragment (E. coli, pPelBFLAG), assayed on spheroplasts; not shown: C-terminal FLAG tag from pPelBFLAG) DKTHTCPPCPAPELLGGPSVFLFPPKPKDTLMISRTPEVTCVVVDVSHEDPEVKFNWYVDGVEVHDAKTKPREEQYNSTYRVVSVLTVLHQDWLNGKEYKCKVSNKALPAPIEKTISKAKVQPREPQVYTLPPSRDELTKNQVSLTCLVKGFYPSDIAVEWVSNGQPENNYKTTPPVLDSDGSFFLYSKLTVDKSRWQQGNVFSCSVIHEALHSHYTQKSLSLSPGK |
| binds | Fc706 (other, Aglycosylated Fc fragment (E. coli, pPelBFLAG), assayed on spheroplasts; not shown: C-terminal FLAG tag from pPelBFLAG) DKTHTCPPCPAPELLGGPSVFLFPPKPKDTLMISRTPEVTCVVVDVSHEDPEVKFNWYVDGVEVHNAKTKPREEQYNSTYRVVSVLTVLHQDWLNGKEYKCKVSNKAWPIEYEKTISKAKGQPREPQVYTLPPSRDELTKNQVSLTCLVKGFYPSDIAVEWVSNGQPENNYKTTPPVLDSDGSFFLYSKLTVDKSRWQQGNVFSCSVIHEALHNHYTQKSLSLSPGK |
| binds | Fc613 (other, Aglycosylated Fc fragment (E. coli, pPelBFLAG), assayed on spheroplasts; not shown: C-terminal FLAG tag from pPelBFLAG) DKTHTCPPCPAPELLGGPSVFLFPPKPKDTLMISRTPEVTCVVVDVSHEDPEVKFNWYVDGVEVHNAKTKPREEQYNSTYRVVSVLTVLHQDWLNGKEYKCKVSNKALPAPIEKTISKAKVQPREPQVYTLPPSRDELTKNQVSLTCLAKGFYPSDIAVEWVSNGQPENNYKTTPPVLDSDGSFFLYSKLTVDKSRWQQGNVFSCSVIHEALHNHYTQKSLSLSPGK |
| binds | Fc702 (other, Aglycosylated Fc fragment (E. coli, pPelBFLAG), assayed on spheroplasts; not shown: C-terminal FLAG tag from pPelBFLAG) DKTHTCPPCPAPELLGGPSVFLFPPKPKDTLMISRTPEVTCVVVDVSHEDPEVKFNWYMDGVEVHNAKTKPREEQYNSTYRVVSVLTVLHQDWLNGKEYKCKVSNKAWPEEYEKTISKAKGQPREPQVYTLPPSRDELTKNQVSLTCLVKGFYPSDIAVEWVSNGQPENNYKTTPPVLDSDGSFFLYSKLTVDKSRWQQGNVFSCSVIHEALHNHYTQKSLSLSPGK |
